US20180328920A1 (Hoffmann-La Roche, published 2018)

Legend:
[1] = target: T1, Tim3-CLIP (human Tim3 extracellular domain - CLIP tag - Tim3 transmembrane region - Flag tag, on HEK293 cells) (human, CLIP tag labelled with CLIP-Red (FRET acceptor dye)); test: cell-based TR-FRET (Tag-lite) on HEK293 cells co-expressing PD1-SNAP and Tim3-CLIP; signal needs simultaneous binding of both
T1 construct: also called Tim3 receptor on PD1+Tim3+ HEK cells

[2] = target: T1, Tim3-CLIP (human Tim3 extracellular …); test: cell-based TR-FRET on PD1-SNAP/Tim3-CLIP HEK293 cells (FIG. 5)
Method: Transfected cells were sedimented and resuspended at a density of 1×10⁶ cells/ml in tag-Lite® buffer (Cisbio). Thereafter, cells were stained with 100 nM SNAP-Lumi4-Tb (Cisbio) and 100 nM CLIP-Red (Cisbio) for one hour at 37° C. in tag-Lite® buffer (Cisbio). After washing and re-suspending in PBS buffer comprising 2% FCS (v/v), about 50.000 cells (in 50 μl volume) were seeded into 96-well flat-bottom white plates (Costar) bevor either control antibody (e.g. a bivalent, monospecific antibody or an isotype control) or bispecific antibody was added to the cells at a final concentration of 0.001-10 nM. After an incubation for one hour at 4° C. or room temperature, time-resolved fluorescence was measured as ratio of the emission signal at 665 nm and 620 nm (665/620 nm ratio) with a BMG Pherastar reader or Tecan Infinite M1000 Pro using standard settings provided by the respective vendor.

[3] = target: T2, PD1-SNAP (human PD1 extracellular domain - SNAP tag - PD1 transmembrane region - Flag tag, on HEK293 cells) (human, SNAP tag labelled with SNAP-Lumi4-Tb (FRET donor dye)); test: cell-based TR-FRET (Tag-lite) on HEK293 cells co-expressing PD1-SNAP and Tim3-CLIP; signal needs simultaneous binding of both
T2 construct: also called PD1 receptor on PD1+Tim3+ HEK cells

[4] = target: T2, PD1-SNAP (human PD1 extracellular …); test: cell-based TR-FRET on PD1-SNAP/Tim3-CLIP HEK293 cells, antibody at 0.01-40 nM, 1 h at 4 C (FIG. 6, diamond)
Method: (§1) Transfected cells were sedimented and resuspended at a density of 1×10⁶ cells/ml in tag-Lite® buffer (Cisbio). Thereafter, cells were stained with 100 nM SNAP-Lumi4-Tb (Cisbio) and 100 nM CLIP-Red (Cisbio) for one hour at 37° C. in tag-Lite® buffer (Cisbio). […] After an incubation for one hour at 4° C. or room temperature, time-resolved fluorescence was measured as ratio of the emission signal at 665 nm and 620 nm (665/620 nm ratio) with a BMG Pherastar reader or Tecan Infinite M1000 Pro using standard settings provided by the respective vendor.
(§2) To show the specificity of the FRET signal induced by simultaneous binding of the bispecific antibody, monoclonal IgGs of only one specificity were added for competition. Therefore, PD1 and Tim3 expressing HEK cells as described before were labelled with 100 nM SNAP-Lumi4-Tb and 100 nM CLIP-Red. […] A FRET signal was detected. To underline the specificity of FRET signal after bispecific antibody treatment, a monospecific, bivalent anti-PD1 monoclonal antibody was tested alone (FIG. 6, triangle). No FRET signal was detected. If the monospecific, bivalent anti-PD1 monoclonal antibody and the bispecific anti-PD1/Tim3 antibody were present (80 nM monospecific antibody concentration) no FRET signal was detected (FIG. 6, squares). Likewise no FRET signal was obtained if a bivalent, monospecific anti-Tim3 antibody was added (see FIG. 7).

[5] = target: T1, Tim3-CLIP (human Tim3 extracellular …); test: as above
Method: as §1, §2

binding result [1]	binding result [3]	Binder	other results
	binds	PD1-Tim3-0389 (bispecific antibody, human IgG1, kappa, L234A L235A, also called bispecific anti-PD1/Tim3 antibody) heavy 1: not shown heavy 2: EVQLQQSVAELVRPGASVKLSCTASGFNIKTTYMHWVKQRPEQGLEWIGRIDPADDNTKYAPKFQGKATITADTSSNTAYLQLSSLTSEDAAIYYCVRDFGYVAWFAYWGQGTLVTFSAASTKGPSVFPLAPSSKSTSGGTAALGCLVEDYFPEPVTVSWNSGALTSGVHTFPAVLQSSGLYSLSSVVTVPSSSLGTQTYICNVNHKPSNTKVDEKVEPKSCDKTHTCPPCPAPEAAGGPSVFLFPPKPKDTLMISRTPEVTCVVVDVSHEDPEVKFNWYVDGVEVHNAKTKPREEQYNSTYRVVSVLTVLHQDWLNGKEYKCKVSNKALGAPIEKTISKAKGQPREPQVCTLPPSRDELTKNQVSLSCAVKGFYPSDIAVEWESNGQPENNYKTTPPVLDSDGSFFLVSKLTVDKSRWQQGNVFSCSVMHEALHNRFTQKSLSLSPGK light 1: EVILVESGGGLVKPGGSLKLSCAASGFSFSSYTMSWVRQTPEKRLDWVATISGGGRDIYYPDSVKGRFTISRDNAKNTLYLEMSSLMSEDTALYYCVLLTGRVYFALDSWGQGTSVTVSSASVAAPSVFIFPPSDEQLKSGTASVVCLLNNFYPREAKVQWKVDNALQSGNSQESVTEQDSKDSTYSLSSTLTLSKADYEKHKVYACEVTHQGLSSPVTKSFNRGEC light 2: NIVMTPTPKFLPVSSGDRVTMTCRASQSVDNYVAWYQQKPGQSPKLLIYYASNRYIGVPDRFTGSGSGTDFTFTISSVQVEDLAVYFCQQHYSSPYTFGSGTKLEIKRTVAAPSVFIFPPSDRKLKSGTASVVCLLNNFYPREAKVQWKVDNALQSGNSQESVTEQDSKDSTYSLSSTLTLSKADYEKHKVYACEVTHQGLSSPVTKSFNRGEC	binding result [2]: binds
binds	binds	PD1-Tim3-0359 (bispecific antibody, human IgG1, kappa, L234A L235A, also called 2+2 format bispecific antibody PD1-Tim3-0359) heavy: not shown light 1: QIVLTQSPAIMSASPGQKVTITCSASSSVNYTQWYQQKLGSSPKLWIYDAFKLAPGVPARFSGSGTGTSYSLTISSMEAEDAASYFCHQWSSYPWTFGGGTKLEIKRTVAAPSVFIFPPSDRKLKSGTASVVCLLNNFYPREAKVQWKVDNALQSGNSQESVTEQDSKDSTYSLSSTLTLSKADYEKHKVYACEVTHQGLSSPVTKSFNRGEC light 2: EVILVESGGGLVKPGGSLKLSCAASGFSFSSYTMSWVRQTPEKRLDWVATISGGGRDIYYPDSVKGRFTISRDNAKNTLYLEMSSLMSEDTALYYCVLLTGRVYFALDSWGQGTSVTVSSASVAAPSVFIFPPSDEQLKSGTASVVCLLNNFYPREAKVQWKVDNALQSGNSQESVTEQDSKDSTYSLSSTLTLSKADYEKHKVYACEVTHQGLSSPVTKSFNRGEC	

Further lines, the binder ahead of its results:

Binder	binding result [1]	binding result [3]	other results
PD1-Tim3-0476 (bispecific antibody) heavy 1: not shown heavy 2: EVQLVESGGGLVQPGGSLRLSCAASGFNIKTTYMHWVRQAPGKGLEWVGRIDPADDNTKYAPKFQGKATISADTSKNTAYLQMNSLRAEDTAVYYCVRDFGYVAWFAYWGQGTLVTVSSASTKGPSVFPLAPSSKSTSGGTAALGCLVEDYFPEPVTVSWNSGALTSGVHTFPAVLQSSGLYSLSSVVTVPSSSLGTQTYICNVNHKPSNTKVDEKVEPKSCDKTHTCPPCPAPEAAGGPSVFLFPPKPKDTLMISRTPEVTCVVVDVSHEDPEVKFNWYVDGVEVHNAKTKPREEQYNSTYRVVSVLTVLHQDWLNGKEYKCKVSNKALGAPIEKTISKAKGQPREPQVCTLPPSRDELTKNQVSLSCAVKGFYPSDIAVEWESNGQPENNYKTTPPVLDSDGSFFLVSKLTVDKSRWQQGNVFSCSVMHEALHNHYTQKSLSLSPGK light 1: EVQLLESGGGLVQPGGSLRLSCAASGFSFSSYTMSWVRQAPGKGLEWVATISGGGRDIYYPDSVKGRFTISRDNSKNTLYLQMNSLRAEDTAVYYCVLLTGRVYFALDSWGQGTLVTVSSASVAAPSVFIFPPSDEQLKSGTASVVCLLNNFYPREAKVQWKVDNALQSGNSQESVTEQDSKDSTYSLSSTLTLSKADYEKHKVYACEVTHQGLSSPVTKSFNRGEC light 2: DIVMTQSPLSLPVTPGEPASISCRASQSVDNYVAWYLQKPGQSPQLLIYYASNRYIGVPDRFSGSGSGTDFTLKISRVEAEDVGVYYCQQHYSSPYTFGQGTKVEIKRTVAAPSVFIFPPSDRKLKSGTASVVCLLNNFYPREAKVQWKVDNALQSGNSQESVTEQDSKDSTYSLSSTLTLSKADYEKHKVYACEVTHQGLSSPVTKSFNRGEC	binds		
PD1-Tim3-0477 (bispecific antibody) heavy 1: not shown heavy 2: QITLKESGPTLVKPTQTLTLTCTFSGFSLSTSGMSVGWIRQPPGKGLEWLAHIWLNDDVFFNPALKSRLTITKDTSKNQVVLTMTNMDPVDTATYYCVRANGYLYALDYWGQGTLVTVSSASTKGPSVFPLAPSSKSTSGGTAALGCLVEDYFPEPVTVSWNSGALTSGVHTFPAVLQSSGLYSLSSVVTVPSSSLGTQTYICNVNHKPSNTKVDEKVEPKSCDKTHTCPPCPAPEAAGGPSVFLFPPKPKDTLMISRTPEVTCVVVDVSHEDPEVKFNWYVDGVEVHNAKTKPREEQYNSTYRVVSVLTVLHQDWLNGKEYKCKVSNKALGAPIEKTISKAKGQPREPQVCTLPPSRDELTKNQVSLSCAVKGFYPSDIAVEWESNGQPENNYKTTPPVLDSDGSFFLVSKLTVDKSRWQQGNVFSCSVMHEALHNHYTQKSLSLSPGK light 1: EVQLLESGGGLVQPGGSLRLSCAASGFSFSSYTMSWVRQAPGKGLEWVATISGGGRDIYYPDSVKGRFTISRDNSKNTLYLQMNSLRAEDTAVYYCVLLTGRVYFALDSWGQGTLVTVSSASVAAPSVFIFPPSDEQLKSGTASVVCLLNNFYPREAKVQWKVDNALQSGNSQESVTEQDSKDSTYSLSSTLTLSKADYEKHKVYACEVTHQGLSSPVTKSFNRGEC light 2: DIQLTQSPSFLSASVGDRVTITCSASSSVSYTQWYQQKPGKAPKLWIYDAFKLAPGVPSRFSGSGSGTEFTLTISSLQPEDFATYFCHQWSSYPWTFGQGTKLEIKRTVAAPSVFIFPPSDRKLKSGTASVVCLLNNFYPREAKVQWKVDNALQSGNSQESVTEQDSKDSTYSLSSTLTLSKADYEKHKVYACEVTHQGLSSPVTKSFNRGEC	binds		
PD1-Tim3-0168 (bispecific antibody, human IgG1, kappa, L234A L235A) heavy 1: not shown heavy 2: QVTLKESGPGILQPSQTLSLTCSFSGFSLSTSGMSVGWIRQPSGKGLEWLAHIWLNDDVFFNPALKRRLTISKDTSNNQVFLQIASVVTADTATYYCVRANGYLYALDYWGQGISVTVSSASTKGPSVFPLAPSSKSTSGGTAALGCLVEDYFPEPVTVSWNSGALTSGVHTFPAVLQSSGLYSLSSVVTVPSSSLGTQTYICNVNHKPSNTKVDEKVEPKSCDKTHTCPPCPAPEAAGGPSVFLFPPKPKDTLMISRTPEVTCVVVDVSHEDPEVKFNWYVDGVEVHNAKTKPREEQYNSTYRVVSVLTVLHQDWLNGKEYKCKVSNKALGAPIEKTISKAKGQPREPQVCTLPPSRDELTKNQVSLSCAVKGFYPSDIAVEWESNGQPENNYKTTPPVLDSDGSFFLVSKLTVDKSRWQQGNVFSCSVMHEALHNRFTQKSLSLSPGK light 1: EVILVESGGGLVKPGGSLKLSCAASGFSFSSYTMSWVRQTPEKRLDWVATISGGGRDIYYPDSVKGRFTISRDNAKNTLYLEMSSLMSEDTALYYCVLLTGRVYFALDSWGQGTSVTVSSASVAAPSVFIFPPSDEQLKSGTASVVCLLNNFYPREAKVQWKVDNALQSGNSQESVTEQDSKDSTYSLSSTLTLSKADYEKHKVYACEVTHQGLSSPVTKSFNRGEC light 2: QIVLTQSPAIMSASPGQKVTITCSASSSVNYTQWYQQKLGSSPKLWIYDAFKLAPGVPARFSGSGTGTSYSLTISSMEAEDAASYFCHQWSSYPWTFGGGTKLEIKRTVAAPSVFIFPPSDRKLKSGTASVVCLLNNFYPREAKVQWKVDNALQSGNSQESVTEQDSKDSTYSLSSTLTLSKADYEKHKVYACEVTHQGLSSPVTKSFNRGEC			binding result [4]: binds; binding result [5]: binds
